# Reference: PMC4605311, “Structure of mitochondrial poly(A) RNA polymerase reveals the structural basis for dimerization, ATP selectivity and the SPAX4 disease phenotype” (Nucleic Acids Research, 2015)
# Where a chain is given by its changes, count along the chain named. Numbers in names are those of the source.
# B1: chicken mitochondrial poly(A) RNA polymerase, mature wild type (residues 37–568) (enzyme, Gallus gallus, UniProt F1NBW0 37-568, looked up)
# chain: AGGAEETDAEVSARKKTFTEVQTERLEQADRSVLIKCPSKLNEKKLLQYLSSHGKIDNYFFFENRGIHALIEFSEKSSVASLQAVTGIPKAAEHHVVPYKSRLFTFTLKNPGSQAAEERPVKISPQSHIPVNELIPKLCHADSISSQMYILLNEYQLTEENIKLRYLACSLVRDFARAYFPDSTVKPFGSSVNTFGKLGCDVDMFLDFHDIQKHATKMKKGPFEMEYQMKRLPSERLATQKILSIIGDCLDNFGPGYSSVQKILNARCPLVKFSHQPTGFQCDLSVSNSIAIRCSELLYIYGCLDPRVRALVFSLRCWARVHGLTNSVPGTWITNFSLTMMIMFFLQKRSPPIIPTLDQLKELADEKDKHVIGGYDCSFVSDLSKIKPTKNTETLDELLCDFFQYFGNFDFRKNSLNLRKGKEVNKPESSPLYIWNPFEQDLNISKNVNQPQLEKFVAMARESAWILQKEDKTQQMINKEPWGLAAVLIPFGKSNPNTMKSRTKGIGSETIKSLLDSLKLSDANNLQKAVGK
# notes: Expression construct pNIC28-BsaI; also called mtPAP; WT mtPAP; source: E. coli KRX/pRARE2, purified (HisTrap, TEV cleavage, HiTrap Heparin)
# B2: chicken mtPAP N472D mutant (residues 37–568) (enzyme, Gallus gallus, UniProt F1NBW0 37-568, looked up)
# chain: B1 chain with N436D
# notes: mitochondrial poly(A) polymerase (mtPAP), Gallus gallus, residues 37-568, N472D (counterpart of human N478D); Purified by the same procedure as the wild type; also called N472D mtPAP; SPAX4 N472D mtPAP mutant; source: E. coli KRX/pRARE2, purified (HisTrap, TEV cleavage, HiTrap Heparin)
# B3: chicken mtPAP triple mutant K76E, K80–81E (enzyme, Gallus gallus, UniProt F1NBW0 37-568, looked up)
# chain: B1 chain with K40E, K44E, K45E
# notes: mitochondrial poly(A) polymerase (mtPAP), Gallus gallus, residues 37-568, charge-reversal triple mutant; The methods list K80–81E and K76E apart; the results call it a triple mutant
# B4: chicken mtPAP R272E mutant (enzyme, Gallus gallus, UniProt F1NBW0 37-568, looked up)
# chain: B1 chain with R236E
# notes: mitochondrial poly(A) polymerase (mtPAP), Gallus gallus, residues 37-568, R272E
# B5: chicken mtPAP K112E mutant (enzyme, Gallus gallus, UniProt F1NBW0 37-568, looked up)
# chain: B1 chain with K76E
# notes: mitochondrial poly(A) polymerase (mtPAP), Gallus gallus, residues 37-568, K112E
# How the values were obtained:
# [1] = molecular target: the molecule itself; experiment: crystal structure; hanging drop, 0.2 M NaCl, 0.1 M Bis-Tris pH 5.5, 20–23% PEG 3350; apo crystals and crystals soaked with 10 mM MgCl2 and 10 mM nucleotide; two mtPAP molecules in the asymmetric unit
# [2] = molecular target: the molecule itself; experiment: SEC; Superdex-200 elution profiles of WT and mutated mtPAP proteins
Protein,binding result [2],other results
B1,,stoichiometry N [1]: 2
B2,,binding result [1]: binds
B3,binds,
B4,binds,
B5,binds,
